Several values for one entry are separate records, joined by “and”; a condition that tells them apart may be missing. Identical values can stand only once. Entries after “also recorded” stand apart in the source; their conditions may differ. Ends that are not written are not given here.
What was measured:
[1] = Pharmacokinetic study of DGC in C57BL/6J mice (serum Au by ICP-MS); assay type: in vivo; details: for AUC(0-t) (AUClast) / AUC(0-∞) (AUCINF_obs) / AµMC(0-t) (AUMClast) / AµMC(0-∞) (AUMCINF_obs) / Cmax / MRT(0-t) (MRTlast) / MRT(0-∞) (MRTINF_obs) / Vz/F (Vz_obs) / elimination half-life t1/2z (HL_Lambda_z) / CLz/F (Cl_obs) / Tmax: 20 mg/kg i.v. single dose, n=3; for AUC(0-t) (AUClast) / AUC(0-∞) (AUCINF_obs) / AµMC(0-t) (AUMClast) / AµMC(0-∞) (AUMCINF_obs) / Cmax / MRT(0-t) (MRTlast) / MRT(0-∞) (MRTINF_obs) / Vz/F (Vz_obs) / elimination half-life t1/2z (HL_Lambda_z) / CLz/F (Cl_obs) / Tmax / Clast / C0 / Cmax_D / Lambda_z: serum Au by ICP-MS; for AUC(0-t) (AUClast) / AUC(0-∞) (AUCINF_obs) / AµMC(0-t) (AUMClast) / AµMC(0-∞) (AUMCINF_obs) / Cmax / MRT(0-t) (MRTlast) / MRT(0-∞) (MRTINF_obs) / Vz/F (Vz_obs) / elimination half-life t1/2z (HL_Lambda_z) / CLz/F (Cl_obs) / Tmax / Clast_pred / AUCINF_D_obs / AUCINF_D_pred / AUCINF_pred / AUCall / AUClast_D / AUMCINF_pred / Cl_pred / MRTINF_pred / Vss_obs / Vss_pred / Vz_pred / C0 / Cmax_D / Lambda_z: WinNonlin; for CLz/F (Cl_obs) / Tmax: 20 mg/kg; for Clast_pred / Clast / AUCINF_D_obs / AUCINF_D_pred / AUCINF_pred / AUCall / AUClast_D / AUMCINF_pred / Cl_pred / MRTINF_pred / Vss_obs / Vss_pred / Vz_pred / C0 / Cmax_D / Lambda_z: 20 mg/kg i.v.; for Clast_pred / Clast: Tlast 48 h
Procedure: Male and female mice were given a single intravenous dose of 20 mg/ kg (n = 3). The blood of posterior orbital venous plexus was collected at continuous time points (0.083, 0.25, 0.5, 1, 2, 4, 8, 10, 12, 24, and 48 h) and the serum was rapid separation by centrifugation (1200×g at 4 °C, 10 min). Au content in the serum sample was detected by ICP-MS. The pharmacokinetic index was obtained by using winnonlin8.4 […] model.

CTGF = test: Quantitating CTGF in DGC-labelled cells by ICP-MS; assay type: cell-based
Procedure: After U87MG, SH-SY5Y, and CTX TNA2 cells were imaged by a laser confocal microscopy system, these cells labeled with DGC were quantitatively analyzed by an ICP-MS system (Thermo Elemental X7, USA). Each cell group in the glass vials was digested by adding 5 mL aqua regia (HCl: HNO3 = 3:1) overnight. Subsequently, the aqua regia was heated to evaporate to the last drop to be diluted by a mixture of 2% HNO3 and 1% HCl. A standard curve of Au was made to quantify the concentration of Au in different cells. ICP-MS was used to test the Au signal in triplicates.

[2] = In vitro stability of DGC fluorescence on storage in PBS; assay type: physicochemical; details: two weeks storage in PBS
From the text: In this manuscript, Lu et al. reported a novel gold cluster-based probe modified with peptides that specifically bind to connective tissue growth factor (CTGF). Owing to the elevated expression of CTGF is an upstream regulator of amyloid-beta (Aβ) plaque, the probe holds a promise for potential application in the early diagnosis of Alzheimer's disease (AD). The unique feature of this probe is their capacity to emit near-infrared (NIR) light, rendering them suitable for in vivo imaging. Moreover, their ability to […]
The article is well-crafted, and the experiments convincingly highlight the distinctive properties of the newly developed probe. […]
following concerns are addressed.
Reviewer 1: How long can the fluorescence last in the cells and AD brain, or how stable is the fluorescence of the probe?
Response: We monitored the fluorescence changes of DGC probes in vitro, in U87MG cells and in brain of APP/PS1 mice, respectively. […]
cultured U87MG cells, DGC probe could be well internalized, and obvious […]
medium for 72 h (Fig R5). In APP/PS1 mice, we detected temporal changes of luminescence from DGC in the brain by in vivo NIR-II imaging. […]
Figure R6. […] Monitoring fluorescence intensity of DGC in brain of WT mice and 3-month-old APP/PS1 mice for 24 h (left). […]

DGC: CTGF-targeting peptide-coated gold nanocluster: one Au26 gold nanocluster coated by eight DAG cyclic peptides, NIR-II and red fluorescence (CDAGRKQKC; also: cyclic peptide, ring not given here, eight peptides on one Au26 nanocluster via Cys Au-S bonds)
AUC(0-t) (AUClast) ([1]; female C57BL/6J mice): 650.995 µg·h/mL | AUC(0-∞) (AUCINF_obs) ([1]; female C57BL/6J mice): 779.367 µg·h/mL | AµMC(0-t) (AUMClast) ([1]; female C57BL/6J mice): 10136.5 h*h*mg/L | AµMC(0-∞) (AUMCINF_obs) ([1]; female C57BL/6J mice): 19964.5 h*h*mg/L | Cmax ([1]; female C57BL/6J mice): 191.26 µg/mL | MRT(0-t) (MRTlast) ([1]; female C57BL/6J mice): 15.5708 h | MRT(0-∞) (MRTINF_obs) ([1]; female C57BL/6J mice): 25.6162 h | Vz/F (Vz_obs) ([1]; female C57BL/6J mice): 0.7329 L/kg | elimination half-life t1/2z (HL_Lambda_z) ([1]; female C57BL/6J mice): 19.7951 h | CLz/F (Cl_obs) ([1]; female C57BL/6J mice): 0.5 mL/min/kg and 0.4277 mL/min/kg | Tmax ([1]; female C57BL/6J mice): 4.8 min and 4.98 min | Clast_pred ([1]; female C57BL/6J mice): 4.584 µg/mL | Clast ([1]; female C57BL/6J mice): 4.495 µg/mL | AUCINF_D_obs ([1]; female C57BL/6J mice): 38.9684 kg·mg·h/L/mg | AUCINF_D_pred ([1]; female C57BL/6J mice): 39.095 kg·mg·h/L/mg | AUCINF_pred ([1]; female C57BL/6J mice): 781.9 µg·h/mL | AUCall ([1]; female C57BL/6J mice): 650.995 µg·h/mL | AUClast_D ([1]; female C57BL/6J mice): 32.5498 kg·mg·h/L/mg | AUMCINF_pred ([1]; female C57BL/6J mice): 20158.4 h*h*mg/L | Cl_pred ([1]; female C57BL/6J mice): 0.4263 mL/min/kg | MRTINF_pred ([1]; female C57BL/6J mice): 25.7813 h | Vss_obs ([1]; female C57BL/6J mice): 0.6574 L/kg | Vss_pred ([1]; female C57BL/6J mice): 0.6595 L/kg | Vz_pred ([1]; female C57BL/6J mice): 0.7305 L/kg | C0 ([1]; female C57BL/6J mice): 267.189 µg/mL | Cmax_D ([1]; female C57BL/6J mice): 9.563 kg·mg/L/mg | Lambda_z ([1]; female C57BL/6J mice): 0.03502 h⁻¹ | elimination half-life (t1/2z) ([1]; in mice, sex not specified): about 20 h | AUC(0-t) (AUClast) ([1]; male C57BL/6J mice): 615.219 µg·h/mL | AUC(0-∞) (AUCINF_obs) ([1]; male C57BL/6J mice): 735.649 µg·h/mL | AµMC(0-t) (AUMClast) ([1]; male C57BL/6J mice): 8803.77 h*h*mg/L | AµMC(0-∞) (AUMCINF_obs) ([1]; male C57BL/6J mice): 18299.4 h*h*mg/L | Cmax ([1]; male C57BL/6J mice): 172.688 µg/mL | MRT(0-t) (MRTlast) ([1]; male C57BL/6J mice): 14.31 h | MRT(0-∞) (MRTINF_obs) ([1]; male C57BL/6J mice): 24.8751 h | Vz/F (Vz_obs) ([1]; male C57BL/6J mice): 0.8386 L/kg | elimination half-life t1/2z (HL_Lambda_z) ([1]; male C57BL/6J mice): 21.3817 h | CLz/F (Cl_obs) ([1]; male C57BL/6J mice): 0.5 mL/min/kg and 0.4532 mL/min/kg | Tmax ([1]; male C57BL/6J mice): 4.8 min and 4.98 min | Clast_pred ([1]; male C57BL/6J mice): 3.998 µg/mL | Clast ([1]; male C57BL/6J mice): 3.904 µg/mL | AUCINF_D_obs ([1]; male C57BL/6J mice): 36.7825 kg·mg·h/L/mg | AUCINF_D_pred ([1]; male C57BL/6J mice): 36.9275 kg·mg·h/L/mg | AUCINF_pred ([1]; male C57BL/6J mice): 738.551 µg·h/mL | AUCall ([1]; male C57BL/6J mice): 615.219 µg·h/mL | AUClast_D ([1]; male C57BL/6J mice): 30.7609 kg·mg·h/L/mg | AUMCINF_pred ([1]; male C57BL/6J mice): 18528.2 h*h*mg/L | Cl_pred ([1]; male C57BL/6J mice): 0.4513 mL/min/kg | MRTINF_pred ([1]; male C57BL/6J mice): 25.0872 h | Vss_obs ([1]; male C57BL/6J mice): 0.6763 L/kg | Vss_pred ([1]; male C57BL/6J mice): 0.6794 L/kg | Vz_pred ([1]; male C57BL/6J mice): 0.8353 L/kg | C0 ([1]; male C57BL/6J mice): 204.126 µg/mL | Cmax_D ([1]; male C57BL/6J mice): 8.634 kg·mg/L/mg | Lambda_z ([1]; male C57BL/6J mice): 0.03242 h⁻¹ | ICP-MS DGC (Au) content per cell (CTGF; DGC-labelled CTX TNA2 cells, replicate 1): 1.359 | ICP-MS DGC (Au) content per cell (CTGF; DGC-labelled CTX TNA2 cells, replicate 2): 1.246 | ICP-MS DGC (Au) content per cell (CTGF; DGC-labelled CTX TNA2 cells, replicate 3): 1.418 | ICP-MS DGC (Au) content per cell (CTGF; DGC-labelled SH-SY5Y cells, replicate 1): 3.579 | ICP-MS DGC (Au) content per cell (CTGF; DGC-labelled SH-SY5Y cells, replicate 2): 3.885 | ICP-MS DGC (Au) content per cell (CTGF; DGC-labelled SH-SY5Y cells, replicate 3): 3.913 | ICP-MS DGC (Au) content per cell (CTGF; DGC-labelled U87MG cells, replicate 1): 9.5834 | ICP-MS DGC (Au) content per cell (CTGF; DGC-labelled U87MG cells, replicate 2): 9.979 | ICP-MS DGC (Au) content per cell (CTGF; DGC-labelled U87MG cells, replicate 3): 9.837 | fluorescence intensity change on storage [2]: decreased only slightly; also recorded: decreased only

Source: publication PMC11169542, “A probe for NIR-II imaging and multimodal analysis of early Alzheimer’s disease by targeting CTGF” (Nature Communications, 2024)
